Common to all, as to assay: SPR, KD relative to WT C2;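 further: biacore SPR at 37 °C, anti-C2 mAbs captured via immobilised goat anti-human IgG, C2 alanine or serine surface mutants as analytes, 1:1 model fitted, double-referenced sensograms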
The target in one assay is T1, human C2 K329A (human, UniProt P06681 21-752).
T1 sequence: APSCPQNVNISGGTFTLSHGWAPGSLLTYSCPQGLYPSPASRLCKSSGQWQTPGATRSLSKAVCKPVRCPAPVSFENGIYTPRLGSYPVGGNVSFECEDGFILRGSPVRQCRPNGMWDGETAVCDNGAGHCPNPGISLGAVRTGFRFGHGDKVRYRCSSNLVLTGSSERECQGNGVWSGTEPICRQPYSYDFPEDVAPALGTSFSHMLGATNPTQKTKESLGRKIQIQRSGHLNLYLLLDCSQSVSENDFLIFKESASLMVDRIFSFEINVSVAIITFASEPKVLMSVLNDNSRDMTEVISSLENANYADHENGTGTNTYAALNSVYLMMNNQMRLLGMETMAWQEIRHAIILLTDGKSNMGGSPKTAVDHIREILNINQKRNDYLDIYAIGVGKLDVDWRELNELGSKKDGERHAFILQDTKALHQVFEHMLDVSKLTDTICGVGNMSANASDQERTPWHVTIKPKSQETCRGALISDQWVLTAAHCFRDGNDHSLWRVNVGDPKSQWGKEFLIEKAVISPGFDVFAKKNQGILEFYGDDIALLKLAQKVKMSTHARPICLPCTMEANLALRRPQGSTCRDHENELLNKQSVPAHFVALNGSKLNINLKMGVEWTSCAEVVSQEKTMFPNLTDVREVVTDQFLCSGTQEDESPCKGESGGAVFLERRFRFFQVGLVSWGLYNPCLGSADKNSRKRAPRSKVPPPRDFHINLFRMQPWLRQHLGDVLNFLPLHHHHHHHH

Another assay has as its target T2, human C2 A472S (human, UniProt P06681 21-752).
T2 sequence: T1 sequence with A309K, A452S

The target in a further assay is T3, human C2 K487A (human, UniProt P06681 21-752).
T3 sequence: T1 sequence with A309K, K467A

The next assay deals with T4, human C2 E645A (human, UniProt P06681 21-752).
T4 sequence: T1 sequence with A309K, E625A

Positions count from the first letter of the chain named.

B1: RF16-226 (antibody, human IgG4 S228P, lambda)
heavy: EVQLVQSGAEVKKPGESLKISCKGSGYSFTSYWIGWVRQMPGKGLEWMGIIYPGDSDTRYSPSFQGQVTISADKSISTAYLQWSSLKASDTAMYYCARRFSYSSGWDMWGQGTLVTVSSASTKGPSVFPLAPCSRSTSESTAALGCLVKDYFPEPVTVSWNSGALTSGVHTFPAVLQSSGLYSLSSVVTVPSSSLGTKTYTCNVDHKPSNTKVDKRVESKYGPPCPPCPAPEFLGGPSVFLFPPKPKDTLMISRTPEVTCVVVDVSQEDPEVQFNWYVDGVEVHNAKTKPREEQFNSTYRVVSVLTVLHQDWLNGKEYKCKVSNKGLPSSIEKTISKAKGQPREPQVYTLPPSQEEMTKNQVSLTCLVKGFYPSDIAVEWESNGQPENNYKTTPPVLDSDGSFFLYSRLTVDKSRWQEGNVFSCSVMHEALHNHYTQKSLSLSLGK
light: SYELTQPPSVSVSPGQTARITCSGDALTSKYVAWYQQKSGLAPLLVIYEDTRRPSGIPAKFSGSSSGSVATLTISGAHGDDEADYYCYSTDASGHQRVFGGGTKLTVLSQPKAAPSVTLFPPSSEELQANKATLVCLISDFYPGAVTVAWKADGSPVKAGVETTKPSKQSNNKYAASSYLSLTPEQWKSHRSYSCQVTHEGSTVEKTVAPTECS
notes: pH-dependent anti-C2 antibody from a phage display library; also called WT
Take B1: the Fold diff with human C2 K329A was 3 fold; with human C2 A472S it was 5 fold; in the assay with human C2 K487A, 9 fold; with human C2 E645A, 1 fold.

Source of the values: patent US20220332804A1 (CSL INNOVATION, published 2022).
